Data published in article PMC4640833, “Identification of a Novel Di-D-Fructofuranose 1,2’:2,3’ Dianhydride (DFA III) Hydrolysis Enzyme from Arthrobacter aurescens SK8.001” (PLoS ONE, 2015).
Each block holds one molecule with its values, some of them ahead of it.

Key:
[1] = target: DFA III hydrolysis enzyme (DFA IIIase) from Arthrobacter aurescens SK8.001 (Arthrobacter aurescens SK8.001); assay: SEC; gel filtration by HPLC, TSK G2000SWxl column, 0.1 M phosphate buffer pH 6.7 with 0.05% NaN3 and 0.1 M Na2SO4, 1 mL/min, UV 280 nm; native mass about 145 kDa against 49 kDa subunit by SDS-PAGE; mass markers for calibration
[2] = substrate: OC[C@H]1O[C@@]2(CO[C@]3(CO)O[C@H](CO)[C@@H](O)[C@@H]3O2)[C@@H](O)[C@@H]1O; assay: HPLC (refractive index) of inulobiose produced, nonlinear Michaelis-Menten fit; type: biochemical, Paenarthrobacter aurescens; details: 50 mM citrate buffer pH 5.5, 55°C, 10 min, DFA III 2.0-50 mM

stoichiometry N [1]: 3
Molecule: DFA III hydrolysis enzyme (DFA IIIase) from Arthrobacter aurescens SK8.001

B1: AaDFA IIIase (Paenarthrobacter aurescens) (protein)
chain: MSNSNYYNVTAWPIGDPFTGVGEVINSIIADIKDRQTATDENDGGKPGAVIYLPPGDYRLRTQVVIDVSFLRIEGSGHGFTSSSIRFNAPEAEWPDLHELWPGGSRVMVDLPIIDDERPSDLLPDQESKGAAFYVERSGSPRISSVEFSNFCIDGLHFTPDGSGLPAENSYVNGKTGIYVASANDSFRVNGMGFVYLENALTICKADALSVHDNFIAECGSCIELRGWGQASKITDNLIGAGFKGHSIYAQNHGGLLITANNIFPRGASSIHFEGVTRSSVSNNRLHSFYPGMVVLAEGSSENLVSTNHFLRDHEPWTPFLGVDNGRDDLYGILRISGSNNSVIGNHFSEVVDAQSIWPSGATPVIIRLAEGTGNFVSNNHVVAMDVRSASSDSCFAAQVDALLTTGASDGLAVTAVLVDSTSARNTILDSGNDAQVIADRGANAVRATPTVGFAAAESTQSSQGAGIPR
notes: full length 470 residues (49,879 Da), no signal peptide, C-terminal 6xHis tag kept, pET-22b(+) in E. coli BL21(DE3), homotrimer 145 kDa
Km [2]: 30.7 ± 4.3 mM
